Data: patent US20230009539

Tested on: Purified recombinant SF2

## Recombinant IKKi
  in vitro kinase assay: IKKi indeed was able to phosphorylate SF2 in vitro
